Reference: patent US20140328850A1 (Amgen, published 2014)
No end group written: not given here.

Tests used:
[1] = target: apelin (UniProt Q9ULZ1 65-77, limits assumed); assay: cell-based or functional assay
[2] = target: T1, apelin 12 (UniProt Q9ULZ1 66-77); assay: BIAcore solution equilibrium binding: Ab A pre-incubated with apelin 12, injected over immobilised biotin-labeled apelin; one-site homogeneous model
T1 construct: domain: apelin 12
T1 peptide (looked up): RPRLSHKGPMPF
Experimental: Binding affinity of Ab A was determined using BIAcore solution equilibrium binding analysis. Briefly, biotin-labeled apelin was immobilized at high density on a neutravidin surface. Ab A was incubated with apelin 12 at RT for over 4 hours before injected over the immobilized surfaces. The dissociation equilibrium constant (Kd) was obtained from a nonlinear regression analysis of the competition curve using a one-site homogeneous binding model (KinExATM Pro software).

[3] = target: T2, apelin 12-2 (also: biotinylated, position not given here); assay: ELISA: biotinylated peptide captured on neutravidin plate, antibody detected with HRP goat anti-mouse Fc, OD650; one point per peptide, antibody concentration not given
T2 construct: also called peptide 11
T2 peptide: RPRLSHKGPMP
Experimental: (§1) The antibody binding site was mapped using an ELISA-based assay. Briefly, various biotinylated apelin peptides (SEQ ID NOs: 7-22) were captured onto neutravidin coated plates and incubated with apelin antibody. Bound antibody was detected with horseradish peroxidase-conjugated goat anti-mouse Fc in the presence of the chromogenic substrate. The absorbance was read at 650 nm. Ab A is believed to neutralize all active forms of apelin.

[4] = target: T3, apelin 12-3 (also: biotinylated, position not given here); assay: as above
T3 construct: also called peptide 12
T3 peptide: RPRLSHKGPM
Experimental: as §1

[5] = target: T4, apelin 12-4 (also: biotinylated, position not given here); assay: as above
T4 construct: also called peptide 13
T4 peptide: RPRLSHKGP
Experimental: as §1

[6] = target: T5, apelin 12-5 (also: biotinylated, position not given here); assay: as above
T5 construct: also called peptide 14
T5 peptide: RPRLSHKG
Experimental: as §1

[7] = target: T6, pyro13 C-blot (N-terminal pGlu as printed; biotinylated; the sheet prints 'C-blot', meaning not explained); assay: as above
T6 construct: also called peptide 3
T6 peptide: ERPRLSHKGPMPF
Experimental: as §1

[8] = target: T7, F13A (also: biotinylated, position not given here); assay: as above
T7 construct: apelin 13 with A in place of the C-terminal F; also called peptide 4
T7 peptide: QRPRLSHKGPMPA
Experimental: as §1

[9] = target: T8, apelin 11 (also: biotinylated, position not given here); assay: as above
T8 construct: also called peptide 6
T8 peptide: PRLSHKGPMPF
Experimental: as §1

B1: antibody A (Ab A) (antibody, V domains shown)
VH: NVQLVESGGGLVKPGGSLKLSCVASGFIFSDYVMSWVRQTPEKRLEWVATISDGGIYTSYPDNIKGRFTISRDNANNKLYLQMSHLRSEDTAMYFCSRAAITSDDFDFWGQGTALTVSS
VL: DIVMSQSPSSLAVSAGEKVTMSCKSSQSLLDSRTRKNYLAWYQQKPGQSPKLLISWASIRESGVPDRFTGSGSGTDFTLSISSVQAEDLAVYYCKQSYYLLTFGAGTKLELKR
notes: also called apelin antibody; apelin Ab
**Q.** For B1, which “IC50: inhibition of the apelin-induced change of cAMP (HTRF ratio 665/620) in CHOK1-human APJ cells, 6 nM apelin, 500 nM forskolin” value [1] is on record?
**A.** Its value is 18.2 nM.

**Q.** And the Kd [2]?
**A.** The Kd was 6 nM.

**Q.** Does B1 bind [3]?
**A.** Result: binds

**Q.** Does B1 bind [4]?
**A.** Result: binds

**Q.** Does B1 bind [5]?
**A.** Result: binds

**Q.** Does B1 bind [6]?
**A.** Result: binds

**Q.** Does B1 bind [7]?
**A.** Result: binds

**Q.** Does B1 bind [8]?
**A.** Result: binds

**Q.** Does B1 bind [9]?
**A.** Result: binds
